B1: I159A/I161A αB-crystallin (natural protein, human, UniProt P02511 1-175, looked up)
chain: MDIAIHHPWIRRPFFPFHSPSRLFDQFFGEHLLESDLFPTSTSLSPFYLRPPSFLRAPSWFDTGLSEMRLEKDRFSVNLDVKHFSPEELKVKVLGDVIEVHGKHEERQDEHGFISREFHRKYRIPADVDPLTITSSLSSDGVLTVNGPRKQVSGPERTAPATREEKPAVTAAPKK
notes: αB-crystallin, human, SwissProt P02511, with I159A and I161A (I-X-I motif); ESI-MS mass 20074.4 Da; The measured mass fits the whole untagged protein with both changes; also called I159A/I161A mutant; source: dialyzed against 50 mM phosphate buffer
B2: Wild-type human αB-crystallin (natural protein, UniProt P02511 1-175, looked up)
chain: MDIAIHHPWIRRPFFPFHSPSRLFDQFFGEHLLESDLFPTSTSLSPFYLRPPSFLRAPSWFDTGLSEMRLEKDRFSVNLDVKHFSPEELKVKVLGDVIEVHGKHEERQDEHGFISREFHRKYRIPADVDPLTITSSLSSDGVLTVNGPRKQVSGPERTIPITREEKPAVTAAPKK
notes: αB-crystallin, human, SwissProt P02511; Polydisperse oligomer; also called αB-WT; wild-type αB-crystallin
B3: K175L αB-crystallin (natural protein, human, UniProt P02511 1-175, looked up)
chain: MDIAIHHPWIRRPFFPFHSPSRLFDQFFGEHLLESDLFPTSTSLSPFYLRPPSFLRAPSWFDTGLSEMRLEKDRFSVNLDVKHFSPEELKVKVLGDVIEVHGKHEERQDEHGFISREFHRKYRIPADVDPLTITSSLSSDGVLTVNGPRKQVSGPERTIPITREEKPAVTAAPKL
notes: αB-crystallin, human, SwissProt P02511, with K175L; ESI-MS mass 20143.9 Da; The measured mass fits the whole untagged protein with the change; also called K175L mutant
B4: K174A/K175A αB-crystallin (natural protein, human, UniProt P02511 1-175, looked up)
chain: MDIAIHHPWIRRPFFPFHSPSRLFDQFFGEHLLESDLFPTSTSLSPFYLRPPSFLRAPSWFDTGLSEMRLEKDRFSVNLDVKHFSPEELKVKVLGDVIEVHGKHEERQDEHGFISREFHRKYRIPADVDPLTITSSLSSDGVLTVNGPRKQVSGPERTIPITREEKPAVTAAPAA
notes: αB-crystallin, human, SwissProt P02511, with K174A and K175A; ESI-MS mass 20044.8 Da; The measured mass fits the whole untagged protein with both lysines changed to alanine, although the printed primer reads GCG AAG; also called K174A/K175A mutant
B5: E164A/E165A αB-crystallin (natural protein, human, UniProt P02511 1-175, looked up)
chain: MDIAIHHPWIRRPFFPFHSPSRLFDQFFGEHLLESDLFPTSTSLSPFYLRPPSFLRAPSWFDTGLSEMRLEKDRFSVNLDVKHFSPEELKVKVLGDVIEVHGKHEERQDEHGFISREFHRKYRIPADVDPLTITSSLSSDGVLTVNGPRKQVSGPERTIPITRAAKPAVTAAPKK
notes: αB-crystallin, human, SwissProt P02511, with E164A and E165A; ESI-MS mass 20043.0 Da; The measured mass fits the whole untagged protein with both changes; also called E164A/E165A mutant

Target: the molecule itself
Assay: SEC; size-exclusion HPLC, Phenomenex BioSep SEC S4000 column; mobile phase 50 mM sodium phosphate buffer, pH 7.2; 10 µL of a 10 mg/mL sample, 0.5 mL/min; calibrated with mass standards; self-association into oligomers

**Q.** Does B1 bind?
**A.** binds

**Q.** Does B2 bind?
**A.** binds

**Q.** Does B3 bind?
**A.** binds

**Q.** Does B4 bind?
**A.** binds

**Q.** Does B5 bind?
**A.** binds

Target: insulin B-chain (bovine pancreas insulin reduced with DTT) (bovine, UniProt P01317 25-54)
Assay: cell-based or functional assay

Chain of insulin B-chain (bovine pancreas insulin reduced with DTT) (P01317 25-54): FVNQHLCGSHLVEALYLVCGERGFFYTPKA

**Q.** With B1 as the binder, how does the “decrease in chaperone assay: percentage protection against DTT-induced precipitation of the insulin B-chain (light scattering at 340 nm, 37°C, 1.0:0.14 molar ratio of insulin:αB-crystallin, after 90 …)” value read?
**A.** 68%

From PMC2002509, “Site-Directed Mutations in the C-Terminal Extension of Human αB-Crystallin Affect Chaperone Function and Block Amyloid Fibril Formation” (PLoS ONE, 2007)
